Several values for one entry are separate records, joined by “and”; a condition that tells them apart may be missing. Equal values may be shown once.
Columns and labels:
Conditions in all cases: both partners purified
PP1α_(7-330) [1] = molecular target: T1, PP1α_(7-330) (UniProt P62136 7-330); assay: SPR; as a1 but pH 6.5; His6-PP1 captured on Ni-NTA chip, I3_(27-68) injected; two state model
T1 construct: Protein Phosphatase 1 alpha (PP1α), residues 7-330; His6-PP1 was captured on the Ni-NTA sensor chip as the SPR ligand; Mn2+ in all buffers; also called Protein Phosphatase 1; His6-PP1; source: E. coli, purified (Ni-NTA, SEC)

PP1α_(7-330) C273S = molecular target: T2, PP1α_(7-330) C273S (UniProt P62136 7-330, C273S); assay: SPR; His6-PP1 captured on Ni-NTA chip (NiHC200M), I3 variants injected; 25 °C; 20 mM Tris pH 8.0, 500 mM NaCl, 1 mM MnCl2, 0.5 mM TCEP, 0.05% Tween-20; one-to-one one state or one-to-one two state model (TraceDrawer)
T2 construct: Protein Phosphatase 1 alpha (PP1α), residues 7-330, C273S; His6-tagged form captured on the Ni-NTA sensor chip; also called PP1 C273S; source: E. coli, purified (Ni-NTA, SEC)

PP1α_(7-330) [2] = molecular target: T1, PP1α_(7-330); assay: as above
PP1α_(7-330) H248N = molecular target: T3, PP1α_(7-330) H248N (UniProt P62136 7-330, H248N); assay: as above
T3 construct: Protein Phosphatase 1 alpha (PP1α), residues 7-330, H248N; His6-tagged form captured on the Ni-NTA sensor chip; also called PP1 H248N; source: E. coli, purified (Ni-NTA, SEC)

PP1α_(7-330) H66K = molecular target: T4, PP1α_(7-330) H66K (UniProt P62136 7-330, H66K); assay: as above
T4 construct: Protein Phosphatase 1 alpha (PP1α), residues 7-330, H66K (lacks the M1 metal); His6-tagged form captured on the Ni-NTA sensor chip; also called PP1 H66K; source: E. coli, purified (Ni-NTA, SEC)

PP1α_(7-330) [3] = molecular target: T1, PP1α_(7-330); assay: SPR; as a1 but pH 7.0; His6-PP1 captured on Ni-NTA chip, I3_(27-68) injected; two state model
PP1α_(7-330) [4] = molecular target: T1, PP1α_(7-330); assay: SPR; as a1 but pH 7.5; His6-PP1 captured on Ni-NTA chip, I3_(27-68) injected; two state model

T4 sequence (P62136 7-330 H66K): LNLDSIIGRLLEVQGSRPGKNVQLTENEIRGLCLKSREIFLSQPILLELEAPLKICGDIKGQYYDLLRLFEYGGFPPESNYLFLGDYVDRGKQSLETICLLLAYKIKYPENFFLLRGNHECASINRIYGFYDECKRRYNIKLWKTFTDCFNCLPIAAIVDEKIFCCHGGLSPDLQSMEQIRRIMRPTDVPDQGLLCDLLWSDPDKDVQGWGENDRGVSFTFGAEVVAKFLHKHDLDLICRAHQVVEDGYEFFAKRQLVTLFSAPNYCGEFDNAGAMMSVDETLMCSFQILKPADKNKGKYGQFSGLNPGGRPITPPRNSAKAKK
T2 sequence (P62136 7-330 C273S): as the sequence (P62136 7-330 H66K) above, with K60H, C267S counted along it
T1 sequence (P62136 7-330): as the sequence (P62136 7-330 H66K) above, with K60H counted along it
T3 sequence (P62136 7-330 H248N): as the sequence (P62136 7-330 H66K) above, with K60H, H242N counted along it

B1: I3_(27-68) (I3 PP1 interaction domain) (domain or fragment, human, UniProt O60927 27-68, looked up)
chain: SLTIKLRKRKPEKKVEWTSDTVDNEHMGRRSSKCCCIYEKPR
notes: PPP1R11), human, residues 27-68; source: E. coli BL21 (DE3), purified (Ni-NTA, TEV cleavage, heat, SEC); not shown: His6, N-terminal, cleaved; MBP, N-terminal, cleaved
How did the Kd (PP1α_(7-330) [1]) turn out when B1 was run?
The Kd was 16.2 nM and 17.7 nM and 17.1 nM.

What about the Kd (PP1α_(7-330) C273S) of the same binder?
The Kd was 16.9 nM and 15.8 nM and 15.6 nM.

And the Kd (PP1α_(7-330) [2])?
The Kd was 9.87 nM and 7.88 nM and 10.5 nM and 9.04 nM.

What about the Kd (PP1α_(7-330) H248N) of the same binder?
The Kd was 7.74 nM and 5.38 nM.

What about the Kd (PP1α_(7-330) H66K) of the same binder?
The Kd was 6.66 nM and 5.65 nM and 5.52 nM.

And the Kd (PP1α_(7-330) [3])?
Its Kd is 14.9 nM and 16.2 nM and 17.1 nM.

What about the Kd (PP1α_(7-330) [4]) of the same binder?
The Kd was 8.32 nM and 9.2 nM and 9.58 nM.

— PMC10066265, “Inhibitor-3 inhibits Protein Phosphatase 1 via a metal binding dynamic protein–protein interaction” (Nature Communications, 2023)
